Assay results from patent publication US20080220446A1, “Method for Detecting and/or Removing Protein and/or Peptide Comprising a Cross-Beta Structure From an Aqueous Solution Comprising a Protein” (priority 2005, published 2008).

Columns and labels:
[1] = ThT fluorescence enhancement by biopharmaceuticals; type: physicochemical; settings: after alkylation of cysteine residues
Experimental: Fluorescence of ThT—protein/peptide adducts was measured as follows. […] Fluorescence was measured at 485 nm upon excitation at 435 nm. Background signals from buffer, buffer with ThT and protein/peptide solution without ThT were subtracted from corresponding measurements with protein solution incubated with ThT. Regularly, fluorescence of Aβ was used as a positive control, and fluorescence of FP10, a non-amyloid fibrin fragment^16, was used as a negative control. Fluorescence was measured in triplicate on a Hitachi F-4500 fluorescence spectrophotometer (Ltd., Tokyo, Japan).
β2-GPI was reduced and alkylated as follows. Sixhundredforty μl of β2-GPI stock was mixed with 640 μl of 8 M Urea (cooled solution) in 0.1 M Tris pH-8.2. […]
(§1) Protein therapeutics were obtained from the local hospital pharmacy and analyzed within the expiry limits as stated by the manufacturers.
Fluorescence of Thioflavin T (ThT; Sigma T-3516, St. Louis, Mo., USA) and Congo red (CR; Aldrich Chemical Company Inc., Milwaukee, Wis., USA) was measured on a Hitachi F-4500 spectrophotometer at an excitation wavelength of 435 nm and emission wavelength of 485 nm for ThT and an excitation wavelength of 550 nm and emission wavelength of 595 nm for Congo red. […] Fluorescence was measured in triplicate. Background fluorescence of both protein in buffer and dye-solution were subtracted from the total fluorescence signal. […]

[2] = biological target: tPA (Homo sapiens, UniProt P00750); test: tPA/plasminogen activation assay; type: biochemical; settings: β2gpi exposed to cardiolipin or alkylated, 100 μg/ml
tPA, sequence (P00750 36-562): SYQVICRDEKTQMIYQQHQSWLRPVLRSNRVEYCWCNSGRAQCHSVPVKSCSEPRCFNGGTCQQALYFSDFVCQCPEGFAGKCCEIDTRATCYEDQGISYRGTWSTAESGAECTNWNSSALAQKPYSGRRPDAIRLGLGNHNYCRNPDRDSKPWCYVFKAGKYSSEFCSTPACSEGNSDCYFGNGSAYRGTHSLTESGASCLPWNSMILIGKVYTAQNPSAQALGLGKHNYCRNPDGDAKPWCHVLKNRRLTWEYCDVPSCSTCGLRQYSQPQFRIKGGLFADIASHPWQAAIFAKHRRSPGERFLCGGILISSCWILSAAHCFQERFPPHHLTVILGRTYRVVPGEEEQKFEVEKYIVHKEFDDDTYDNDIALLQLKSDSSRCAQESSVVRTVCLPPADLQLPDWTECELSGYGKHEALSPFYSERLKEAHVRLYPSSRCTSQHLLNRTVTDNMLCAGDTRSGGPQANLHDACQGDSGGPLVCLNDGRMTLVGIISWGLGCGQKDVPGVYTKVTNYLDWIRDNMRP
Experimental: β2-GPI was reduced and alkylated as follows. Sixhundredforty μl of β2-GPI stock was mixed with 640 μl of 8 M Urea (cooled solution) in 0.1 M Tris pH-8.2. The solution was degassed with N2 gas for approximately 6 minutes. From a 1 M DTT stock 12.8 μl was added to the solution, mixed and incubated for 3 hours at room temperature. A 1 M Iodoacetamide (Sigma; I-6125) was prepared, of which 25.6 μl was added to the β2-GPI reaction mixture. The solution was subsequently dialysed against PBS. […] Signals obtained with alkyl-β2gpi are compared with those obtained with native β2gpi starting material and with positive control acid/heat denatured amyloid-like misfolded γ-globulins.
Exiqon Peptide Immobilizer plates were blocked for 1 hour with PBS, 1% Tween20 and rinsed twice with distilled water. The conversion of the chromogenic substrate S-2251 (Chromogenix, Italy) by plasmin was kinetically measured at 37° C. on a Spectramax340 microplate reader at a wavelength of 405 nm. […] Denatured γ-globulins (100 μg/ml) with amyloid-like structure was used as reference and positive control. Lyophilized γ-globulins (Sigma, Mo., USA) were dissolved in a 1(:)1 volume ratio of 1,1,1,3,3,3-hexafluoro-2-propanol and trifluoro-acetic acid and subsequently dried under air. […]
as §1

B1: alkyl-β2gpi: reduced and alkylated β2-glycoprotein I (protein)
chain: GRTCPKPDDLPFSTVVPLKTFYEPGEEITYSCKPGYVSRGGMRKFICPLTGLWPINTLKCTPRVCPFAGILENGAVRYTTFEYPNTISFSCNTGFYLNGADSAKCTEEGKWSPELPVCAPIICPPPSIPTFATLRVYKPSAGNNSLYRDTAVFECLPQHAMFGNDTITCTTHGNWTKLPECREVKCPFPSRPDNGFVNYPAKPTLYYKDKATFGCHDGYSLDGPEEIECTKLGNWSAMPSCKASCKVPVKKATVVYQGERVKIQEKFKNGMLHGDKVSFFCKNKEKKCSYTEDAQCIDGTIEVPKCFKEHSSLAFWKTDASDVKPC
- Thioflavin T fluorescence [1]: enhanced Thioflavin T fluorescence
- ability to activate tPA/plasminogen [2]: amyloid-like properties
